Experimental findings from PMC3170884 (Frontiers in Physiology, 2011) are described below.

As usually defined, the Kd is the free concentration of one partner at which half of the binding sites on the other are occupied at equilibrium, for simple one-to-one binding. In general, koff refers to the first-order rate constant of dissociation. What is called kon is the rate constant with which the complex forms.

Assay [1] addresses recombinant human BMP2 derived from E. coli expression (human) (UniProt P12643). In words: SPR.
The target of assay [2] is recombinant human BMP2 derived from E. coli expression (human, UniProt P12643 283-396). In words: SPR. Background: In SPR one partner is held on a chip, and binding of the other changes the refractive index at the surface.
recombinant human BMP2 derived from E. coli expression, sequence (P12643 283-396): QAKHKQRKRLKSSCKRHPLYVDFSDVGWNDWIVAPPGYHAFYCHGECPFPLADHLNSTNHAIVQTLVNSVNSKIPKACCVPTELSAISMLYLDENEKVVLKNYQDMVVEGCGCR

recombinant human BMP2 derived from E. coli expression (human), sequence (P12643 283-396): as above

Regarding “Xenopus Tsg (xTsg) from E. coli, non-glycosylated (natural protein)”, in assay [1], the Kd was 20.2 nM, the koff was determined as 0.00071 s⁻¹ and the kon stood at 38000 M⁻¹ s⁻¹.

“Xenopus Tsg (xTsg) from insect cells, glycosylated (natural protein)”: in assay [1], the Kd is 2.5 nM, the koff was found to be 0.0002 s⁻¹ and the kon worked out at 110000 M⁻¹ s⁻¹.

B1: mouse TWSG1 (mTWSG1) from E. coli, non-glycosylated (natural protein, UniProt Q9EP52 25-222, looked up)
chain: CNKALCASDVSKCLIQELCQCRPGEGNCPCCKECMLCLGALWDECCDCVGMCNPRNYSDTPPTSKSTVEELHEPIPSLFRALTEGDTQLNWNIVSFPVAEELSHHENLVSFLETVNQLHHQNVSVPSNNVHAPFPSDKERMCTVVYFDDCMSIHQCKISCESMGASKYRWFHNACCECIGPECIDYGSKTVKCMNCMF
As for B1, in assay [2], the “KD of the low affinity interaction of the biphasic binding” value stood at 301 nM and the “KD of the slow (high affinity) interaction of the biphasic binding” value was found to be 39.6 nM.
